In publication PMC2962499 (The Journal of Biological Chemistry, 2010) one finds binding result and Kd data, which are given here for 2 molecules.

A word on the Kd: it is the constant that tells how readily two partners part at equilibrium.

Test [1] concerns the target T1, SpRpn12 fragment (residues 1-250) (Schizosaccharomyces pombe, UniProt P50524 1-250).
T1 sequence (looked up): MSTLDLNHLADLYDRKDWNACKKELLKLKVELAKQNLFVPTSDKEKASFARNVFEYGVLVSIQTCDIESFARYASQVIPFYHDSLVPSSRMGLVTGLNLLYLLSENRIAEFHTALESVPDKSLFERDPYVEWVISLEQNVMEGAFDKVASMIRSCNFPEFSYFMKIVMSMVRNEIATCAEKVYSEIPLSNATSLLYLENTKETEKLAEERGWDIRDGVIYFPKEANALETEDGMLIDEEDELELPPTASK
In words: NMR titration.

Test [2] addresses monoubiquitin (bovine) (bovine, UniProt P0CG53 1-76). In words: ITC. (In general: In ITC the heat of successive injections is recorded.)

B1: SpRpn10 VWA domain (residues 1-195) (domain or fragment, Schizosaccharomyces pombe, UniProt O94444 1-195, looked up)
chain: MVLEATMILIDNSEWMINGDYIPTRFEAQKDTVHMIFNQKINDNPENMCGLMTIGDNSPQVLSTLTRDYGKFLSAMHDLPVRGNAKFGDGIQIAQLALKHRENKIQRQRIVAFVGSPIVEDEKNLIRLAKRMKKNNVAIDIIHIGELQNESALQHFIDAANSSDSCHLVSIPPSPQLLSDLVNQSPIGQGVVASQ
Regarding B1, the binding result in test [1] is reported as “binds”.

B2: Schizosaccharomyces pombe Rpn10, full-length (residues 1-243) (natural protein)
chain: MVLEATMILIDNSEWMINGDYIPTRFEAQKDTVHMIFNQKINDNPENMCGLMTIGDNSPQVLSTLTRDYGKFLSAMHDLPVRGNAKFGDGIQIAQLALKHRENKIQRQRIVAFVGSPIVEDEKNLIRLAKRMKKNNVAIDIIHIGELQNESALQHFIDAANSSDSCHLVSIPPSPQLLSDLVNQSPIGQGVVASQNQFEYGVDPNLDVELALALELSMAEERARQEVAAQKSSEETEDKKMQE
The molecule B2 displayed a Kd in test [2] of 139 µM.
